Measured values taken from patent publication US20090076249A1 (published 2009).

B1: -024 (antibody, V domains shown)
VH: EVQLVQSGAEVKKPGESLKISCKGSGYSFSNYWIGWVRQMPGKGLEWMGIIYPHDSDARYSPSFQGQVTFSADKSISTAYLQWSSLKASDTAMYYCARHVGWGSRYWYFDLWGRGTLVTVSS
VL: EIVLTQSPATLSLSPGERATLSCRASQSVSSYLAWYQQKPGQAPGLLIYDASNRASGIPARFSGSGSGTDFTLTISSLEPEDFAVYYCQQRSNWPLTFGGGTKVEIK
B2: -003 (antibody, V domains shown)
VH: not shown
VL: DIQMTQSPSSLSASVGDRVTITCRASQGISSWLAWYQQKPEKAPKSLIYAASSLQSGVPSRFSGSGSGTDFTLTISSLQPEDFATYYCQQYNSYPRTFGQGTKVEIK

Experiments:
Assay in all cases: cell-based or functional assay
human CD38 [1] = molecular target: T1, human CD38 (human, UniProt P28907 1-300)
human CD38 [2] = molecular target: T1, human CD38; remark: listed apart in the source
human CD38 [3] = molecular target: T1, human CD38; remark: listed apart in the source
human CD38 [4] = molecular target: T1, human CD38; remark: listed apart in the source

Binder | EC50 of ADCC (51Cr release), Daudi-luc target cells (human CD38 [1]) [µg/mL] | EC50 of ADCC (51Cr release), fresh MM tumor cells (human CD38 [1]) [µg/mL] | EC50 of CDC (PI-positive cells), CD38-CHO cells (human CD38 [2]) [µg/mL] | EC50 of CDC (PI-positive cells), Daudi-luc cells (human CD38 [2]) [µg/mL] | EC50 of CDC, CHO-CD38 cells (n = 2) (human CD38 [3]) [µg/mL] | Log EC50 of ADCC, Daudi target cells (n=5) (human CD38 [4])
B1 | 0.0097 | 0.056 | 0.24 | > 90 |  | 
B2 | 0.009 | 0.027 | 3.14 | > 90 | 4.5 | 1.17
